From the supplement of paper PMC10724198
± gives the standard deviation of the averaged measurements.

System: Saccharomyces cerevisiae
Experiment: protein stability index of tFT-peptide fusion (C-terminal peptide) (PSI (0-1 scale)); higher = more stable (slower turnover)
Conditions: genetic background: wild type; temperature: 30 C
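Also: PSI is a weighted mean of sequencing reads over stability bins, variants kept only with over 10 reads, mCherry proximal and sfGFP distal, peptide attached via GGGS linker.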

Sequence | protein stability index
LLPRPSLDPSPP | 0.682 ± 0.11
PPPATNSLPGFE | 0.672 ± 0.0099
GLKWTGLEWHFL | 0.693 ± 0.041
LFYHLFWLFCSC | 0.634 ± 0.046
THPPPPPPACSV | 0.632 ± 0.037
VAAEGCGAALSR | 0.627 ± 0.0099
PGTLPDDLASTR | 0.673 ± 0.034
GECASVFSSGFF | 0.72 ± 0.17
SSPTRARLFFPH | 0.659 ± 0.039
LPAILALVPRYP | 0.674 ± 0.022
CFPPVGPTSPTI | 0.745 ± 0.022
NRRCAPVHPGPD | 0.7217 ± 0.0036
LRANSCCPLFGS | 0.739 ± 0.0036
PLPLPSPPPASP | 0.732 ± 0.025
GESRVGMRRGGR | 0.667 ± 0.029
PPPLPPPILLRF | 0.598 ± 0.024
RCLGDLLARQTP | 0.635 ± 0.012
FAGAEFCGPVGV | 0.629 ± 0.0024
LSSRVYDCTRQG | 0.675 ± 0.045
KKKIKKQKKKQI | 0.70912 ± 0.00033
GLQPVGLYPFQL | 0.668 ± 0.008
GAGEGAQEDPAS | 0.705 ± 0.013
PPRPPSPPPPSP | 0.632 ± 0.02
PPPPPPPPFSHS | 0.712 ± 0.022
VVGGAWTEAGGG | 0.632 ± 0.035
ITWFRKVGAYGA | 0.644 ± 0.069

Sequence | protein stability index
FMMRPPVSSKVS | 0.554 ± 0.0048
ELSPLSYRNRTA | 0.6835 ± 0.001
PLSPPVSLPLTP | 0.672 ± 0.098
LPHCPLNVFPLV | 0.654 ± 0.034
LPTHYHQSHTEP | 0.681 ± 0.052
PCLPCVDRGMRG | 0.6663 ± 0.00079
YRPPSPPSPLPP | 0.674 ± 0.007
SPPCSPSALSHL | 0.728 ± 0.053
SSLSLDERKPRT | 0.712 ± 0.23
NRGKDEIMKRDK | 0.671 ± 0.066
PTPPPALPPPPL | 0.6994 ± 0.0054
ACKVIMSVGRRL | 0.644 ± 0.064
GRTGETGRIGRG | 0.6512 ± 0.0023
VSRDVMYLGLGG | 0.721 ± 0.18
LGEAGGWSLGFG | 0.73 ± 0.018
PIPPRLPPPPPP | 0.589 ± 0.057
SSPRQITTLTRL | 0.757 ± 0.037
RNSDPRLGGNTF | 0.687 ± 0.052
IGSEKGKIGVGC | 0.677 ± 0.067
PLPHPPPLALRT | 0.655 ± 0.063
PLPCLPPAGSTP | 0.818 ± 0.02
PGAVNRASDGEV | 0.6061 ± 0.005
ARRGLVWTEGGG | 0.718 ± 0.011
ALRSGHALPFGF | 0.667 ± 0.021
IGRVSVWDQKVA | 0.673 ± 0.054
RKPTSFFSRIVN | 0.611 ± 0.026

Sequence | protein stability index
SRFILSRLPLLS | 0.595 ± 0.065
LPPPPPILHLPS | 0.6463 ± 0.005
PNTSVAATPHDF | 0.67 ± 0.085
GRWGGWGGRGCG | 0.696 ± 0.023
SGRYNIKPEERE | 0.634 ± 0.022
LLAPPLPAVPSF | 0.731 ± 0.006
SHVPLPRAHSPP | 0.6702 ± 0.0034
RSFRCWVQGYCG | 0.654 ± 0.044
SRDSGLIDPRFS | 0.66973 ± 0.00044
HDRIHWDLDLSE | 0.617 ± 0.041
PPPPTLPPPPLS | 0.722 ± 0.14
VVARLERAGLGG | 0.766 ± 0.094
SGAATSRRGLCS | 0.672 ± 0.013
GPEGSDMIDPWK | 0.666 ± 0.13
PPRPRPPSSPST | 0.641 ± 0.0099
GGGERLDDIVGG | 0.801 ± 0.081
TALFRLRRPRLR | 0.801 ± 0.021
CDHLSLCDDLFA | 0.753 ± 0.065
LAPPPPVPPTHS | 0.721 ± 0.052
PLFLPLVPPQIL | 0.682 ± 0.028
FPTPPPGPGPPP | 0.641 ± 0.03
CVPLGCDWRGLI | 0.6418 ± 0.0058
SAPPLPLSPPPS | 0.739 ± 0.076
KLKEDRRIGRNR | 0.668 ± 0.033
EETTSNLGLKVN | 0.5617 ± 0.0014
VLRSTQGAINRI | 0.717 ± 0.02

Sequence | protein stability index
PASSTLRPPAHP | 0.723 ± 0.18
DSSPSPYPRPPP | 0.729 ± 0.054
ANRTIFWGRVRN | 0.721 ± 0.05
AAPEGLRRDRGA | 0.571
PHTFNVRPFHPD | 0.674 ± 0.034
PSRVPTPLPHFT | 0.737 ± 0.049
TMLPQGFSGNLH | 0.6891 ± 0.0025
RFGGGPCRSVGC | 0.7331 ± 0.0059
TGVGRLGYRFVV | 0.588 ± 0.0064
VSFRRFKFKVKM | 0.661 ± 0.061
RCSAPWFSPYPP | 0.645 ± 0.073
LPLFTIVPPFFF | 0.59 ± 0.011
CLCLTCMLDFYL | 0.553 ± 0.0092
TPPPTPSLPTRP | 0.677 ± 0.057
RWGVRGAIHSDL | 0.6841 ± 0.0065
RNIQKLNKIKKK | 0.753 ± 0.15
SGRAALARVSPT | 0.694 ± 0.028
HHPTTQRLSVIH | 0.742 ± 0.042
VLVPVDRCGYIG | 0.619 ± 0.11
RAKVEQTGQKTV | 0.707 ± 0.011
SAFLSFPFLSPF | 0.705 ± 0.011
ELRFRGITRTTV | 0.725 ± 0.052
LVLLPSASPLLL | 0.71 ± 0.044
